From PMC10397807, “Automated simulation-based membrane protein refinement into cryo-EM data” (Biophysical Journal, 2023)

Target: the molecule itself
Test: cryo-EM structure; single-particle reconstruction of maltoporin solubilized in DDM, C3 symmetry imposed, 3.0 Å

B1: maltoporin (natural protein, E. coli (endogenous in C43(DE3)), UniProt P02943 26-446, looked up)
chain: VDFHGYARSGIGWTGSGGEQQCFQTTGAQSKYRLGNECETYAELKLGQEVWKEGDKSFYFDTNVAYSVAQQNDWEATDPAFREANVQGKNLIEWLPGSTIWAGKRFYQRHDVHMIDFYYWDISGPGAGLENIDVGFGKLSLAATRSSEAGGSSSFASNNIYDYTNETANDVFDVRLAQMEINPGGTLELGVDYGRANLRDNYRLVDGASKDGWLFTAEHTQSVLKGFNKFVVQYATDSMTSQGKGLSQGSGVAFDNEKFAYNINNNGHMLRILDHGAISMGDNWDMMYVGMYQDINWDNDNGTKWWTVGIRPMYKWTPIMSTVMEIGYDNVESQRTGDKNNQYKITLAQQWQAGDSIWSRPAIRVFATYAKWDEKWGYDYTGNADNNANFGKAVPADFNGGSFGRGDSDEWTFGAQMEIWW
notes: maltoporin of Escherichia coli, endogenously expressed; native sample purified from E. coli; model fitted from PDB 1MAL and deposited as PDB 8B7V; source: endogenous, E. coli C43(DE3)
  binding result: binds
